This assay relates to ST8SiaIV KO SW2 cells. Nature of the assay: Flow cytometry binding to ST8SiaIV knockout cells. It counts as cell-based, human. The text has this:
FIGS. 8A-8C depict binding of polySia-specific mAb to ST8SiaII and ST8SiaIV knockout cell lines. […] Data are the geometric mean fluorescence intensity (MFI), with the values reported as the average of three replicates and the error represented as the standard deviation of the mean. […] In the ST8SiaII KO SW2 cells, 73% of the population (FL1-H-) binds mo735 below the level of the wild-type SW2 cells. […] In the ST8SiaIV KO SW2 cells, 68% of the population (FL1-H-) binds mo735 below the level of the wild-type SW2 cells.
CRISPR guide RNAs targeting ST8SiaII (crRNA1: […]; SEQ ID NO: 5) and ST8Sia4 (crRNA1: […]; SEQ ID NO: 6) were purchased from Genscript in the pLentiCRISPR v2 vector. Knockout cell lines were generated in SW2 cells using protocols described by Zhang and colleagues (Shalem et al., “Genome-Scale CRISPR-Cas9 Knockout Screening in Human Cells,” Science 343:84-7 (2014), which is hereby incorporated by reference in its entirety). Briefly, after lentiviral transduction, cells were maintained under selection with 1 μg/mL puromycin for at least 14 days prior to analysis by flow cytometry.
Cancer cells were trypsinized and collected with media, followed by three washes in PBS. […] Cells were washed three times, resuspended in 500 μL of 0.5% BSA in PBS, and analyzed on a BD FACSCalibur flow cytometer using Cell Quest Pro software (BD Biosciences).

B1: mo735: well-known mouse-derived IgG2a monoclonal antibody 735 targeting polysialic acid (antibody, V domains shown)
VH: QIQLQQSGPELVRPGASVKISCKASGYTFTDYYIHWVKQRPGEGLEWIGWIYPGSGNTKYNEKFKGKATLTVDTSSSTAYMQLSSLTSEDSAVYFCARGGKFAMDYWGQGTSVTVSS
VL: DVVMTQTPLSLPVSLGDQASISCRSSQSLVHSNGNTYLYWYLQKPGQSPKPLIYRVSNRFSGVPDRFSGSGSGTDFTLKISRVEAEDLGVYFCFQGTHVPYTFGGGTRLEIK
With B1, the “population (FL1-H-) binding below the level of wild-type SW2 cells” value worked out at 68%.

(Values after patent US20200277405A1, “COMPOSITION FOR ANTIBODY-DRUG CONJUGATE DIRECTED AGAINST TUMOR-CELL ASSOCIATED POLYSIALIC ACID” (Cornell University, priority 2019, published 2020).)
